According to patent US20220088146A1, “Melanocortin Receptor-Specific Peptide Formulations and Methods for Gastrointestinal Tract-Specific Delivery” (Palatin Technologies, Inc., priority 2018, published 2022):
Bridge positions count the residues as written; N and C are the ends. Square brackets hold non-standard residues; d marks the D form. dPhe(3-Cl) = N[C@H](Cc1cccc(Cl)c1)C(=O)O; dPhe(4-Cl) = N[C@H](Cc1ccc(Cl)cc1)C(=O)O; dPhe(4-Me) = Cc1ccc(C[C@@H](N)C(=O)O)cc1; dPhe(2-Cl) = N[C@H](Cc1ccccc1Cl)C(=O)O; dPhe(4-F) = N[C@H](Cc1ccc(F)cc1)C(=O)O; dPhe(2-F) = N[C@H](Cc1ccccc1F)C(=O)O; Nle = CCCC[C@H](N)C(=O)O; Orn = NCCC[C@H](N)C(=O)O; Dab = NCC[C@H](N)C(=O)O

Legend:
[1] = target: human melanocortin-1 receptor (human) (UniProt Q01726); experiment: cell-based or functional assay
human melanocortin-1 receptor (human), sequence (Q01726 whole entry): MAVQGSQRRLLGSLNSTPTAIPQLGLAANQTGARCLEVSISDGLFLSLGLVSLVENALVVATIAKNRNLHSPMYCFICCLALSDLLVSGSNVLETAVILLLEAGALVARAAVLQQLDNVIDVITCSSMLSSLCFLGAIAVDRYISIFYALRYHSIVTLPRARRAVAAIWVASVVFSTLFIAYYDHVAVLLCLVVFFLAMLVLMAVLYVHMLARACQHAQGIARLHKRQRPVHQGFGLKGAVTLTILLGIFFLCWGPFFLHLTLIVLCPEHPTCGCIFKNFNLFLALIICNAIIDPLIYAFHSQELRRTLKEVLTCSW

[2] = target: human melanocortin-4 receptor (human) (UniProt P32245); experiment: cell-based or functional assay
human melanocortin-4 receptor (human), sequence (P32245 whole entry): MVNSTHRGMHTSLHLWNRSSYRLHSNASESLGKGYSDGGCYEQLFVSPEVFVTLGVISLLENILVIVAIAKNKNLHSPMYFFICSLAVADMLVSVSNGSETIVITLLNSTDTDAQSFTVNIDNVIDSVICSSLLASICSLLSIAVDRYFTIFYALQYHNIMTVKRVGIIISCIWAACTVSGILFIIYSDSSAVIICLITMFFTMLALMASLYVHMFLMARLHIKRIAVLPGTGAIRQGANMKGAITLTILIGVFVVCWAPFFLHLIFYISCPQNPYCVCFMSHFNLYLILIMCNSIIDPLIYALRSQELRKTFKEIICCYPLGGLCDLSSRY

melanocortin-2 receptor = melanocortin-2 receptor (UniProt Q01718); experiment: cell-based or functional assay
melanocortin-2 receptor, sequence (Q01718 whole entry): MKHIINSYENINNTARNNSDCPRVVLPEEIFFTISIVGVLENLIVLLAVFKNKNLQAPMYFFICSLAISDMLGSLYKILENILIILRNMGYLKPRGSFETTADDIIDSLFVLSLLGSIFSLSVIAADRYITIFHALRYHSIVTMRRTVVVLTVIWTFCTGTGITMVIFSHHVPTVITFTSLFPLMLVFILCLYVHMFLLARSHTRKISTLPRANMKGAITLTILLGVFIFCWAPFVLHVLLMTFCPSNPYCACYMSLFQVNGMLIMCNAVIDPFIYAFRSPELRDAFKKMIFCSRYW

melanocortin-3 receptor = melanocortin-3 receptor (UniProt P41968); experiment: cell-based or functional assay
melanocortin-3 receptor, sequence (P41968 whole entry): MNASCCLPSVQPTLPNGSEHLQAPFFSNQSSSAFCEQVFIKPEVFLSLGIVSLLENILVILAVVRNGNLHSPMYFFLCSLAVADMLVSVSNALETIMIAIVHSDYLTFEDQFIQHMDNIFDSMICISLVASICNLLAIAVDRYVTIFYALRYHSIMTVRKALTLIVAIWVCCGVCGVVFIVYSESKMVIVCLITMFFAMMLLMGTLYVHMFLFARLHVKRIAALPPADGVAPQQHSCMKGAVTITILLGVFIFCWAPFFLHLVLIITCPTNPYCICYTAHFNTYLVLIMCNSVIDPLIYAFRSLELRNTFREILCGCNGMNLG

melanocortin-5 receptor = melanocortin-5 receptor (UniProt P33032); experiment: cell-based or functional assay
melanocortin-5 receptor, sequence (P33032 whole entry): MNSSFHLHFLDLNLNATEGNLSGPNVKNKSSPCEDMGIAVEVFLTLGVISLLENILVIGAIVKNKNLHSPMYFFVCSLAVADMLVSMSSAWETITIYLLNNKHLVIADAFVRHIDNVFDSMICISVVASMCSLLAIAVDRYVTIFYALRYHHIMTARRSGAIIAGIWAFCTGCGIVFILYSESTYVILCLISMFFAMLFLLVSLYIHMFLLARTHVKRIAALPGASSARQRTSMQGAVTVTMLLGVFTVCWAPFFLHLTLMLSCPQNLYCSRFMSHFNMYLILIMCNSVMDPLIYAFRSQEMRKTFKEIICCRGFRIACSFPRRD

[3] = target: human melanocortin-4 receptor (human) (UniProt P32245); experiment: [I125]-NDP-α-MSH competition, hMC4r HEK-293 membranes
[4] = target: human melanocortin-1 receptor (human) (UniProt Q01726); experiment: [I125]-NDP-α-MSH competition, hMC1r HEK-293 membranes

Substance | MC-1 Emax (average; cAMP HBL) [1] [%] | Ki [3] [nM] | MC-1 EC50 (average; cAMP HBL) [1] [nM] | Ki [4] [nM] | also measured
ACTH (adrenocorticotropic hormone) (from UniProt P01189 138-176) (ligand) | – | – | – | – | Functional - CEREP (EC50; nM) [1]: 980 nM; Functional - CEREP (EC50; nM) [2]: 350 nM; Functional - CEREP (EC50; nM) (melanocortin-2 receptor): 4.8 nM; Functional - CEREP (EC50; nM) (melanocortin-3 receptor): 390 nM; Functional - CEREP (EC50; nM) (melanocortin-5 receptor): 4100 nM
Ac-Nle-cyclo(Glu-His-D-Phe-Arg-Dab)-Trp-OH (peptide) | 79 | 10000 | – | 2 | –
Ac-Nle-cyclo(Glu-His-D-Phe-Arg-Dap)-Trp-OH (peptide) | 81 | 4700 | 0.107 | 1 | –
Ac-Nle-cyclo(Glu-Orn-D-Phe(3,4-F)-Arg-Dab)-NH2 (peptide) | 97 | 10000 | 1 | 40 | –
Ac-Nle-cyclo(Glu-Orn-D-Phe(4-OMe)-Arg-Dab)-NH2 (peptide) | 99 | 10000 | 0.12 | 2 | –
Ac-Nle-cyclo(Glu-Pro-D-Phe-Arg-Dab)-NH2 (peptide) | – | 10000 | – | 2250 | –
Ac-[Nle]EH[dF]A[Dab]-NH2 (lactam 2-6) | 73 | 10000 | 44 | 645 | MC-1 EC50 (average; cAMPHBL) [1]: 44 nM
Ac-[Nle]EH[dF]R[Dab]-NH2 (lactam 2-6) | 85 | 10000 | 0.32 | 7 | MC-1 EC50 (average; cAM PHBL) [1]: 0.32 nM
Ac-[Nle]EH[dF][Dab]-NH2 (lactam 2-5) | 51 | 10000 | – | 10000 | –
Ac-[Nle]E[Orn][dF]R[Dab]-NH2 (lactam 2-6) | 102 | 3620 | 0.5 | 4 | –
Ac-[Nle]E[Orn][dPhe(2-Cl)]R[Dab]-NH2 (lactam 2-6) | 88 | 10000 | 1 | 30 | –
Ac-[Nle]E[Orn][dPhe(2-F)]R[Dab]-NH2 (lactam 2-6) | 95 | 10000 | 0.8 | 18 | –
Ac-[Nle]E[Orn][dPhe(3-Cl)]R[Dab]-NH2 (lactam 2-6) | 86 | 10000 | 2 | 35 | –
Ac-[Nle]E[Orn][dPhe(4-Cl)]R[Dab]-NH2 (lactam 2-6) | 100 | 1240 | 0.1 | 2 | –
Ac-[Nle]E[Orn][dPhe(4-F)]R[Dab]-NH2 (lactam 2-6) | 102 | 10000 | 1 | 20 | –
Ac-[Nle]E[Orn][dPhe(4-Me)]R[Dab]-NH2 (lactam 2-6) | 96 | 10000 | 0.076 | 3 | –

The next lines start with results.

MC-1 Emax (average; cAMP HBL) [1] [%] | Ki [3] [nM] | MC-1 EC50 (average; cAMP HBL) [1] [nM] | Ki [4] [nM] | Substance | also measured
75 | 535 | – | – | Ac-D-Phe-cyclo(Glu-His-D-Phe-Arg-Dab)-Trp-NH2 (peptide) | –
92 | 380 | 0.009 | 0.015 | Ac-Nle-cyclo(Dab-His-D-Phe-Arg-Dab)-Trp-NH2 (peptide) | –
78 | 325 | 0.006 | 0.025 | Ac-Nle-cyclo(Dab-His-D-Phe-Arg-Dap)-Trp-NH2 (peptide) | –
85 | 860 | 0.016 | 0.065 | Ac-Nle-cyclo(Dap-His-D-Phe-Arg-Dab)-Trp-NH2 (peptide) | –
70 | 680 | 0.007 | 0.03 | Ac-Nle-cyclo(Dap-His-D-Phe-Arg-Dap)-Trp-NH2 (peptide) | –
86 | 455 | – | – | Ac-Nle-cyclo(Glu-Ala-D-Phe-Arg-Dab)-Trp-NH2 (peptide) | –
100 | 20 | – | – | Ac-Nle-cyclo(Glu-Arg-D-Phe-Arg-Dab)-Trp-NH2 (peptide) | –
97 | 98 | 0.065 | 0.45 | Ac-Nle-cyclo(Glu-Cit-D-Phe-Arg-Dab)-Trp-NH2 (peptide) | –
108 | 98 | 0.008 | 0.05 | Ac-Nle-cyclo(Glu-Dab-D-Phe-Arg-Dab)-Trp-NH2 (peptide) | –
73 | 2 | 0.008 | 0.1 | Ac-Nle-cyclo(Glu-His-D-Phe-Arg-Dab)-D-Nal 1-NH2 (peptide) | –
69 | 0.095 | 0.005 | 0.02 | Ac-Nle-cyclo(Glu-His-D-Phe-Arg-Dab)-D-Nal 2-NH2 (peptide) | –
93 | 33 | 0.025 | 0.55 | Ac-Nle-cyclo(Glu-His-D-Phe-Arg-Dab)-D-Trp-NH2 (peptide) | –
72 | 0.75 | 0.002 | 0.005 | Ac-Nle-cyclo(Glu-His-D-Phe-Arg-Dab)-Nal 1-NH2 (peptide) | –
83 | 3 | – | 0.01 | Ac-Nle-cyclo(Glu-His-D-Phe-Arg-Dab)-Nal 2-NH2 (peptide) | MC-1 EC50 (average; cAM PHBL) [1]: 0.004 nM
95 | 110 | – | – | Ac-Nle-cyclo(Glu-His-D-Phe-Arg-Dab)-Trp-NH2 (peptide) | –
91 | 510 | – | – | Ac-Nle-cyclo(Glu-His-D-Phe-Arg-Dap)-Trp-NH2 (peptide) | Functional - CEREP (EC50; nM) [2]: 510 nM
91 | 295 | – | – | Ac-Nle-cyclo(Glu-His-D-Phe-Arg-Orn)-Trp-NH2 (peptide) | –
108 | 95 | – | – | Ac-Nle-cyclo(Glu-Lys-D-Phe-Arg-Dab)-Trp-NH2 (peptide) | –
109 | 45 | 0.002 | 0.015 | Ac-Nle-cyclo(Glu-Orn-D-Phe-Arg-Dab)-Trp-NH2 (peptide) | –
